Measurements taken from paper PMC8185509 (Molecular Medicine Reports, 2021).

Molecular target: T1, optic atrophy 1, Myc-tagged (OPA1-myc) (UniProt O60313-1 88-960)
T1 sequence (looked up): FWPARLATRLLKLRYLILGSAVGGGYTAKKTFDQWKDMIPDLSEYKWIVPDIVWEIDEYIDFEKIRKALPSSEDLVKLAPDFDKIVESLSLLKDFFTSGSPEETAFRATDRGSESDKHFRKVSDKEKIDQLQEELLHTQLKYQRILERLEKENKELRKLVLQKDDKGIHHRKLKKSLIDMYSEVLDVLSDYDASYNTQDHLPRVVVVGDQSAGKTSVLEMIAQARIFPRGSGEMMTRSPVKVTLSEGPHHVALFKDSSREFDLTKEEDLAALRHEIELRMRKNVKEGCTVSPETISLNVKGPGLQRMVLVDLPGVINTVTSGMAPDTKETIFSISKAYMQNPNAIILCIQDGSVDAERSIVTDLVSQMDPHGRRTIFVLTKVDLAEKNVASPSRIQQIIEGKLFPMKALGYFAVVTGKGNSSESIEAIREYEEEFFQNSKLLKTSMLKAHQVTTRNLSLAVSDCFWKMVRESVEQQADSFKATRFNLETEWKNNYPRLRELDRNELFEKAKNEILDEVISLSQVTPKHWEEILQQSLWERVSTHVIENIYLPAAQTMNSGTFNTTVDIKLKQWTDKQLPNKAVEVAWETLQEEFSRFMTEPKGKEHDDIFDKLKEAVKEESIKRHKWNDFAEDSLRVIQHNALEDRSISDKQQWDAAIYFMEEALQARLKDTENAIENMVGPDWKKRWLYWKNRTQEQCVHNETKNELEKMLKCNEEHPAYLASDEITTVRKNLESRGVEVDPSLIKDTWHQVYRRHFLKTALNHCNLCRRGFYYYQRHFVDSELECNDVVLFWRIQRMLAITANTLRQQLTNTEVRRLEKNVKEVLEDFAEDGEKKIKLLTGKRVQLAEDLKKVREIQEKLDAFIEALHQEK
Assay: pull-down

binding result: binds
B1: recombinant GST-fused HIGD-1B (natural protein, human, UniProt Q9P298 1-99, looked up)
chain: MSANRRWWVPPDDEDCVSEKLLRKTRESPLVPIGLGGCLVVAAYRIYRLRSRGSTKMSIHLIHTRVAAQACAVGAIMLGAVYTMYSDYVKRMAQDAGEK
